Source: patent publication US20250258178A1 (SHIONOGI, published 2025)
Blank lines part the entries; values can stand above or below the binder they belong to.

Legend:
Peptide #2 = target: T1, Peptide #2 (human); test: peptide microarray, fluorescent anti-mouse IgG
T1 construct: 15-mer of human HRG printed on a PEPperCHIP peptide microarray
T1 peptide: DHSHGPPLPQGPPPL
Description: (§1) An overlapping peptide scanning method was performed to find out specific antibody-binding peptide epitopes. The amino acid sequence of the HRG protein was obtained in NCBI protein database. PEPperPrint (registered trademark) (Heidelberg, Germany) was commissioned to prepare PEPperCHIP peptide microarrays designed from HRG protein sequences. Each peptide consisted of an overlapping peptide library having 15 amino acid residues overlapping 14 amino acid residues and was extended at the N- and C-terminus with a neutral GSGSGSG linker to ensure that the peptides were separated from each other. […] After treatment of 21 types of anti-HRG monoclonal antibodies, it stained with an anti-mouse IgG polyclonal secondary antibody followed by reading fluorescence intensity on a scanner to quantify protein-antibody binding.
(§2) Each microarray was processed as follows. Before incubation with a sample, a standard buffer was applied on slides followed by treating with a blocking buffer. The microarray was treated with a fluorescently-labeled anti-mouse IgG secondary antibody followed by the measurement of background fluorescence intensity caused by non-specific interactions using a scanner.
(§3) The microarray was incubated with the 21 types of anti-HRG monoclonal antibodies. The microarray was stained with a fluorescently labeled anti-mouse IgG secondary antibody. The fluorescence intensity at each position was measured by a scanner.

Peptide #4 = target: T2, Peptide #4 (human); test: peptide microarray, fluorescent anti-mouse IgG
T2 construct: 15-mer of human HRG printed on a PEPperCHIP peptide microarray
T2 peptide: SHGPPLPQGPPPLLP
Description: as §1, §2, §3

Peptide #5 = target: T3, Peptide #5 (human); test: peptide microarray, fluorescent anti-mouse IgG
T3 construct: 15-mer of human HRG printed on a PEPperCHIP peptide microarray
T3 peptide: HGPPLPQGPPPLLPM
Description: as §1, §2, §3

Peptide #7 = target: T4, Peptide #7 (human); test: peptide microarray, fluorescent anti-mouse IgG
T4 construct: 15-mer of human HRG printed on a PEPperCHIP peptide microarray
T4 peptide: PPLPQGPPPLLPMSC
Description: as §1, §2, §3

[1] = target: T5, human histidine-rich glycoprotein (HRG), purified from human plasma (human, UniProt P04196 19-525); test: sandwich ELISA, HRG captured by solid phase 58-5C
T5 construct: also called human purified HRG; human purified HRG protein
T5 sequence: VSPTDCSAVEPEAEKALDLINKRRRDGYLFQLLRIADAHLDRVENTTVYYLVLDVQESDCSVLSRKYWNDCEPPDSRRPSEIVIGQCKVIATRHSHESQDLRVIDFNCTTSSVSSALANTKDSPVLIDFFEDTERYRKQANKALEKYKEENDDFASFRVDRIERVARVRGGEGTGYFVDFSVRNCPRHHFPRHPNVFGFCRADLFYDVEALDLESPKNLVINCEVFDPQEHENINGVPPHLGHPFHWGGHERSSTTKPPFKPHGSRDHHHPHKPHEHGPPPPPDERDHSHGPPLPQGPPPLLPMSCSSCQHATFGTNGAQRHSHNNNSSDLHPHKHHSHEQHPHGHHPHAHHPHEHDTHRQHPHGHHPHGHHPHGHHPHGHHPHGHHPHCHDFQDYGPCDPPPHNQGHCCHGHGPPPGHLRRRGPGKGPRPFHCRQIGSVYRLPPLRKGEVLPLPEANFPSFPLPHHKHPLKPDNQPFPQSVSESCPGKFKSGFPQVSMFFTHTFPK
Description: (§4) The capture antibody solution was dispensed at 25 μL per well into 384-well Maxisorp plates (NUNC), and the plates were incubated at room temperature for 3 hours. The plates were washed twice with 120 μL of washing solution per well (0.05% Tween 20-containing PBS). A blocking solution (1% BSA-containing PBS) was dispensed at 30 μL per well, and the plates were incubated at room temperature for 3 hours. The blocking solution was removed followed by dispensing the standard substance for evaluation at 20 μL per well (n=2), and the plates were incubated at room temperature for 3 hours. After washing the plates four times with the washing solution as described above, the solution of each detector antibody was dispensed at 10 μL per well, followed by dispensing a horseradish peroxidase-streptavidin solution (0.05 μg/mL) at 10 μL per well, and the plates were incubated at room temperature for 1 hour. After washing the plates four times with the washing solution as described above, a chromogenic substrate solution (TMB (3,3′,5,5′-tetramethylbenzidine)) was dispensed at 20 μL per well followed by incubating the plates at room temperature for 10 minutes, then a reaction stop solution 0.5 M H₂SO₄ was added at 20 μL/well, and the absorbance at 450 nm was measured.
(§5) The results regarding the evaluation of combinations chosen from 21 types of anti-HRG monoclonal antibodies are shown in Table 1. In Table 1, the absorbance at a wavelength of 450 nm of each combination was determined as follows: less than 1.0 OD: −, 1.0 OD or more and less than 2.0 OD: +, 2.0 OD or more and less than 3.0 OD: ++, and 3.0 OD or more: +++. The combinations of antibodies which could construct a sandwich ELISA system having enough level of absorbance change were 86 sets evaluated as ++ or +++ in Table 1.

[2] = target: T5, human histidine-rich glycoprotein …; test: sandwich ELISA, HRG captured by solid phase 75-2D
Description: as §4, §5

[3] = target: T5, human histidine-rich glycoprotein …; test: sandwich ELISA, HRG captured by solid phase 42-10D
Description: as §4, §5

Peptide #13 = target: T6, Peptide #13 (human); test: peptide microarray, fluorescent anti-mouse IgG
T6 construct: 15-mer of human HRG on the peptide microarray; the printed position spans only 14 residues
T6 peptide: HGHHPHGHHPHGHHP
Description: as §1, §2, §3

Peptide #14 = target: T7, Peptide #14 (human); test: peptide microarray, fluorescent anti-mouse IgG
T7 construct: 15-mer of human HRG on the peptide microarray; the printed position spans only 14 residues
T7 peptide: GHHPHGHHPHGHHPH
Description: as §1, §2, §3

Peptide #16 = target: T8, Peptide #16 (human); test: peptide microarray, fluorescent anti-mouse IgG
T8 construct: 15-mer of human HRG on the peptide microarray; the printed position spans only 14 residues
T8 peptide: HPHGHHPHGHHPHCH
Description: as §1, §2, §3

Peptide #17 = target: T9, Peptide #17 (human); test: peptide microarray, fluorescent anti-mouse IgG
T9 construct: 15-mer of human HRG printed on a PEPperCHIP peptide microarray
T9 peptide: PHGHHPHGHHPHCHD
Description: as §1, §2, §3

Peptide #18 = target: T10, Peptide #18 (human); test: peptide microarray, fluorescent anti-mouse IgG
T10 construct: 15-mer of human HRG printed on a PEPperCHIP peptide microarray
T10 peptide: HGHHPHGHHPHCHDF
Description: as §1, §2, §3

Peptide #19 = target: T11, Peptide #19 (human); test: peptide microarray, fluorescent anti-mouse IgG
T11 construct: 15-mer of human HRG printed on a PEPperCHIP peptide microarray
T11 peptide: GHHPHGHHPHCHDFQ
Description: as §1, §2, §3

Peptide #20 = target: T12, Peptide #20 (human); test: peptide microarray, fluorescent anti-mouse IgG
T12 construct: 15-mer of human HRG printed on a PEPperCHIP peptide microarray
T12 peptide: HHPHGHHPHCHDFQD
Description: as §1, §2, §3

Peptide #21 = target: T13, Peptide #21 (human); test: peptide microarray, fluorescent anti-mouse IgG
T13 construct: 15-mer of human HRG printed on a PEPperCHIP peptide microarray
T13 peptide: HPHGHHPHCHDFQDY
Description: as §1, §2, §3

Peptide #22 = target: T14, Peptide #22 (human); test: peptide microarray, fluorescent anti-mouse IgG
T14 construct: 15-mer of human HRG printed on a PEPperCHIP peptide microarray
T14 peptide: PHGHHPHCHDFQDYG
Description: as §1, §2, §3

Peptide #23 = target: T15, Peptide #23 (human); test: peptide microarray, fluorescent anti-mouse IgG
T15 construct: 15-mer of human HRG printed on a PEPperCHIP peptide microarray
T15 peptide: HGHHPHCHDFQDYGP
Description: as §1, §2, §3

Peptide #24 = target: T16, Peptide #24 (human); test: peptide microarray, fluorescent anti-mouse IgG
T16 construct: 15-mer of human HRG printed on a PEPperCHIP peptide microarray
T16 peptide: GHHPHCHDFQDYGPC
Description: as §1, §2, §3

Peptide #25 = target: T17, Peptide #25 (human); test: peptide microarray, fluorescent anti-mouse IgG
T17 construct: 15-mer of human HRG printed on a PEPperCHIP peptide microarray
T17 peptide: HHPHCHDFQDYGPCD
Description: as §1, §2, §3

binding result (Peptide #2): binds | binding result (Peptide #4): binds | binding result (Peptide #5): binds | binding result (Peptide #7): binds | absorbance at 450 nm (OD450) [1]: 1 to 2 od | absorbance at 450 nm (OD450) [2]: 2 to 3 od | absorbance at 450 nm [3]: < 1 OD
B1: anti-HRG monoclonal antibody 69-1A (antibody, V domains shown)
VH: EVKLEESGGGLVQPGGSMKLSCAASGFTFSDAWMDWVRQSPEKGLEWVAEIRSKANNHGTYYAESVKGRFTISRDDSKSSVYLRMNSLSAEDTGIYYCTRPFAYWGQGTLVTVSA
VL: DVVVTQTPLSLPVSLGDQASISCRSSQSLVHIDGNTYFHWYVQKPGQSPKLLIYKVSNRFSGVPDRFSGSGSGTDFTLKISRVEAEDLGVYFCSQSTHVPLTFGAGTKLELK
notes: Mouse hybridoma monoclonal; also called clone No. 69-1A

binding result (Peptide #13): binds | binding result (Peptide #14): binds | binding result (Peptide #16): binds | binding result (Peptide #17): binds | binding result (Peptide #18): binds | binding result (Peptide #19): binds | binding result (Peptide #20): binds | binding result (Peptide #21): binds | binding result (Peptide #22): binds | binding result (Peptide #23): binds | binding result (Peptide #24): binds | binding result (Peptide #25): binds
B2: anti-HRG monoclonal antibody 75-2D (antibody, V domains shown)
VH: QVQLQQSGAELMKPGASVKISCKATGYTFSSYWIEWVKQRPGHGLEWIGEILPGSGRTNYNEKFKGKATFTADTSSNTAYMQLSSLTSEDSAVYYCARYSYFYYFDYWGQGTTLTVSS
VL: DNVLTQSPAIMSASLGERVTMTCTASSSVSSSYLHWYQQKPGSSPKLWIYSTSNLASGVPARFSGSGSGTSYSLTISSMEAEDAATYYCHQYHRSPWTFGGGTKLEIK
notes: Mouse hybridoma monoclonal; also called clone No. 75-2D
